In the supplement of paper PMC9170038:

Tested on: MS2 coat protein
Test: apparent KD of MS2 coat protein; designed switch direction (-1 OFF switch, 1 ON switch): -1; higher = weaker reporter binding
Procedure, shortened: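 Each step of the titration lasted 0.8–1.5 h at the lowest concentration and 10–20 min at the highest. The protein, SNAP-549-labelled MS2 coat protein, went from 0.7 or 1.5 nM doubling to 3 µM over RNA switches transcribed on Illumina chips by stalled E. coli RNA polymerase. Normalised cluster fluorescence was curve-fitted, and the per-design median over clusters is given as apparent KD.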

[1] = Eterna round: R95, input ligand: microRNA oligo, concentration not stated
[2] = Eterna round: R95, input ligand: FMN 200 uM
[3] = Eterna round: R95, input ligand: none
[4] = input ligand: microRNA oligo, concentration not stated

Sequence | apparent KD of MS2 coat protein [1] [nM] | apparent KD of MS2 coat protein [2] [nM] | apparent KD of MS2 coat protein [3] [nM] | apparent KD of MS2 coat protein (input ligand: FMN 200 uM) [nM] | apparent KD of MS2 coat protein (input ligand: none) [nM] | apparent KD of MS2 coat protein [4] [nM]
UUAUUUAGUGUGAGGAUAUGCUGGUCCAUAGAUCAGCAGAAGGCACAUGAGGAUCACCCAUGUAAUAUAUUAAU [Mat - Exclusion 4 - JL Mod - D32] (puzzle: Brourd's mod of Exclusion 4) | 25.2 | – | – | – | – | –
GAUUACUGCAAGCUUUGGAACAUGAGGAUCACCCAUGUUCGUCUUAUUGAUCUAGGUACGCUGACGUACCUAGAUCU [JL-sv1-2.30 Brourd mod] (puzzle: Sensor v3, turn-off variant 1) | 16.2 | 15.5 | 13.6 | – | – | –
AUACCAUGCCGCCUAAUAGCUUUUUGCUCGUCUUAUAAAACAUGAGGAUCACCCAUGUAAAACAUGUGGCGUGACCC [Maridi] (puzzle: Sensor v3, turn-off variant 2) | 12.5 | 163 | 97.4 | – | – | –
UCCGAACAUGAGGAUCACCCAUGUGAGGAUAUCCCGAGAUUAAAUGCCGCAAGAAGGCGGAGAAGGCGCAUGGG [Biditiinen] (puzzle: Exclusion 1) | 17.3 | 20.6 | 19.5 | – | – | –
GACCCAAGUGUUAGGAUAUCCAGUCGUGGGACCAGGGAGAAGGAACAUGAGGAUCACCCAUGUAAAAUAGAAAC [Anti] (puzzle: Brourd's mod of Exclusion 4) | 22.3 | 137 | 22.3 | – | – | –
CCUCUACAUGAGGAUCACCCAUGUGAGGAUAUAGACCGGCCUAACGCGGGCUCGGGAGCUAGAAGGCACAUAGA [EX1 C.7] (Eterna round: R97, puzzle: Exclusion 1) | – | – | – | 70.8 | 21.8 | –
AAUGGUAAAGUCAGGAUAUACGUAAGUCGUUCUAGGUAGAAGGGACAUGAGGAUCACCCAUGUAUGAUAGUAAA [Ex4 #33] (Eterna round: R97, puzzle: Brourd's mod of Exclusion 4) | – | – | – | 25.4 | 44.6 | –
CCAGCGGACAAAGGAUAUUGCGGUGACCGGCUCGGCGUACCGAGCCUACAUGAGGAUCACCCAUGUAAGAAGGUUGUCGUAGGA [Mat - Exclusion NG 2 - Mod of JL - D73] (Eterna round: R96, puzzle: Exclusion NG 2) | – | – | – | 56.1 | 19.5 | 13.2
GCUUGUGUUGAGGAUAUGCGCCGGCUCGCUGGCGCAGAAGGCGGCACAUGAGGAUCACCCAUGUCAGUUCGCGU [salish99_ex6_r004_010] (Eterna round: R97, puzzle: Exclusion 6) | – | – | – | 428 | 38 | –
CUCGUGUAAGGAUAUGUACCGACACCGCUAAAGCGGCUCCGACAGAAGGUACAUGAGGAUCACCCAUGUACUGC [EX4 B.2] (Eterna round: R97, puzzle: Exclusion 4) | – | – | – | 25.9 | 20.3 | –
AUAAUGUAAGGAUAUCAGUCGUAAUUUAAUUUAAUAUCGACUGAGAAGGUACAUGAGGAUCACCCAUGUGGUCA [E4/9-B2] (Eterna round: R97, puzzle: Exclusion 4) | – | – | – | 148 | 574 | –
AACCAGCGAGGAUAUGCUUGCGCGUGUUCUAGUUGUAAUCGACUUGAGGAUCACCCAAGUAGAAGGCGCUGCCG [EX2 #50] (Eterna round: R97, puzzle: Exclusion 2) | – | – | – | 103 | 119 | –
GAGGAGCAAGGAUAUACGAGGAUAUGGUAGGUUGGAGAGUGACAUGAGGAUCACCCAUGUAGAAGGUGCGAGGG [JR_Exclu2_Sub098] (puzzle: Exclusion 2) | 55.5 | – | – | – | – | –
CUGGUCCGAGGAUAUAUUAUGUGAUACAUGAGGAUCACCCAUGUUAUAUGAUGGAUGUUAGUAGAAGGCGGACUAC [salish99_ex5_r3_001] (puzzle: Exclusion 5) | 69.9 | 102 | 101 | – | – | –
GUAGAGUCAGGAUAUACAAGAUCGAUAGAUCAAAGACCCAUACAUGAGGAUCACCCAUGUAGAAGGGACUCUAC [Mat - Exclusion 2 - Eli Mod - D11] (Eterna round: R97, puzzle: Exclusion 2) | – | – | – | 23 | 18.7 | –
GGAGGACGAGCAGGAUAUUUUCACAUGAGGAUCACCCAUGUGUAUUCAGGGUAAUCUUCCGCCGAAAAGAAGGGUUCGGAAGAA [JL ViennaUCT Socedi mod 3] (Eterna round: R96, puzzle: Exclusion NG 2) | – | – | – | 47.1 | 25.9 | 27.4

Sequence | apparent KD of MS2 coat protein [1] [nM] | apparent KD of MS2 coat protein [2] [nM] | apparent KD of MS2 coat protein [3] [nM] | apparent KD of MS2 coat protein (input ligand: FMN 200 uM) [nM] | apparent KD of MS2 coat protein (input ligand: none) [nM] | apparent KD of MS2 coat protein [4] [nM]
CCCUCACAUGAGGAUCACCCAUGUCAGGAUAUCUCAGUGCAUCCACACGGACGCAUCAAGAGAAGGGACAAAAC [Ququ] (Eterna round: R97, puzzle: Exclusion 1) | – | – | – | 27.8 | 18.4 | –
CUAAAUCAUGUAGGAUAUGCGUGGCGAAGCUAUGCAGAAGGACAUGAGGAUCACCCAUGUCUUUCCGUCUGCGUACAGACGGGA [JL ENG1 1.20] (Eterna round: R96, puzzle: Exclusion NG 1) | – | – | – | 151 | 21.2 | 14.5
AAAUAAUAGAUAAAAUAAAACAUGAGGAUCACCCAUGUAGGCAGAUGAGGGUGAAACAAGCUUUUUGCUCGUCUUAU (puzzle: Sensor v3, turn-off variant 1) | 477 | 63.9 | 75.1 | – | – | –
GCAUUUGUAGGAUAUACAUGAGGAUCACCCAUGUCGAGACGUGCAAGGCUUCCCAACUGUAGAAGGACGCGGCC [Eternabot (L1) Solution 61] (Eterna round: R97, puzzle: Exclusion 3) | – | – | – | 30.8 | 27.4 | –
CCCUCACAUGAGGAUCACCCAUGUUAGGAUAUGGGAGGUACCUGCGUGAGCGCACCACCCAGAAGGGACCAGGC [Eternabot (L2) Solution 4] (Eterna round: R97, puzzle: Exclusion 1) | – | – | – | 130 | 159 | –
CAGUCCGUUUGAGGAUAUCUCUGGAUCGCCAUGAGAGAAGGCAAACAUGAGGAUCACCCAUGUGGUACCGACUCAACGUCGACA [Eternabot solution 10] (Eterna round: R96, puzzle: Exclusion NG 1) | – | – | – | 20.7 | 16 | 11.6
AACAAGGGUUAAUGUACGGACAUGAGGAUCACCCAUGUCCACGGAUGUGUGGAGAGGUCCUCUUUGGCUCGUCUUAU [Cac Sensor turn off var1 sub10] (Eterna round: R97, puzzle: Sensor, turn-off variant 1) | – | – | – | 47.8 | 87.8 | –
UACAUGAGGAUCACCCAUGUUUUGUCGUGUAUGGUAUUUAUCUAGGAUAUCAUUUUAUUAAGUUAUGAGAAGGAGAAUAUUAAU [JMF's solution 90] (Eterna round: R96, puzzle: Exclusion NG 3) | – | – | – | 34.8 | 32.3 | 24.9
ACCUCACAUGAGGAUCACCCAUGUCAGGAUAUGUACCUGGCCAAGACAAAAGCCAGAAGCAGAAGGGACUGCGG [Enrionerdi] (puzzle: Exclusion 1) | 129 | 72.5 | 93.6 | – | – | –
GAAAAGGUAGGAUAUACGAAAAAAAAGGAUAGAAAAAAAACACAUGAGGAUCACCCAUGUAGAAGGACCAAAAG [salish99_ex2_r3_066] (puzzle: Exclusion 2) | 25.5 | 35.2 | 23.3 | – | – | –
UUUUUGUGAGGAUAUCAGUAGUAGAACAAUAGUACUACUACUGAGAAGGCACAUGAGGAUCACCCAUGUUCUUC [Fiskers Ex 4 Super stable 44 mod 11] (puzzle: Exclusion 4) | 27.1 | – | – | – | – | –
CUCAGACAUGAGGAUCACCCAUGUCAGGAUAUCGUCUACCUGUGGAAACACAGGUAGACGAGAAGGGAUGUGUU [SS1 Omei 3 v1] (puzzle: Exclusion 1) | 43.5 | – | – | – | – | –
AAACAGCAAGGAUAUACGGGCAGUGCUUAUCAUAUCAUACAACAUGAGGAUCACCCAUGUAGAAGGUGCAACAA [Ex2 #1] (Eterna round: R97, puzzle: Exclusion 2) | – | – | – | 108 | 39.1 | –
UCAGACAUGAGGAUCACCCAUGUGUGACCCUCCUGUCUCAGUCAGGAUAUACUUUUUCAAACUUAGUAGAAGGGACAACAAAAC [Oronerused] (Eterna round: R96, puzzle: Exclusion NG 3) | – | – | – | 37.8 | 61.4 | 27.8
CAUCCUAUUGUAGGAUAUCCGCUUAUUAUAUUGGGAGAAGGACAUGAGGAUCACCCAUGUGUGUAAUCAGAUGUGCGUGUUAAC [an other try] (Eterna round: R96, puzzle: Exclusion NG 1) | – | – | – | 173 | 82.2 | 66.1
